US20240116985A1 (published 2024)
Starred links: 1 amine or outer side, 2 acyl side, 3 side chain; linkers in the order of their positions; H or OH if unused. Positions of bridges follow the written chain, without caps; N, C: chain ends. Non-standard residues stand in square brackets, D forms with d. Primed or numbered codes have the meaning given here. ξ: configuration not given here. PyrS2″ = (S)-3-amino-1-((pent-4-en-1-yloxy)carbonyl)pyrrolidine-3-carboxylic acid (stapling residue), C=CCCCOC(=O)N1CC[C@@](N[*:1])(C(=O)[*:2])C1; B5(4) = 2,2-bis(4-pentenyl)glycine = 2-amino-2-(pent-4-en-1-yl)hept-6-enoic acid (stitching residue), C=CCCCC(CCCC=C)(N[*:1])C(=O)[*:2]; TfeGA = (S)-2-amino-3-((carboxymethyl)(2,2,2-trifluoroethyl)amino)propanoic acid, O=C([C@H](CN(CC(=O)[*:3])CC(F)(F)F)N[*:1])[*:2]; PyrS2 = (S)-3-amino-1-((pent-4-en-1-yloxy)carbonyl)pyrrolidine-3-carboxylic acid, C=CCCCOC(=O)N1CC[C@@](N[*:1])(C(=O)[*:2])C1; PyrS3 = (S)-3-amino-1-((hex-5-en-1-yloxy)carbonyl)pyrrolidine-3-carboxylic acid, C=CCCCCOC(=O)N1CC[C@@](N[*:1])(C(=O)[*:2])C1; B5(7) = 2-amino-2-(pent-4-en-1-yl)hept-6-enoic acid, two olefinic side chains, C=CCCCC(CCCC=C)(N[*:1])C(=O)[*:2]; Phe(2-Cl) = N[C@@H](Cc1ccccc1Cl)C(=O)O; Bta = N[C@@H](Cc1csc2ccccc12)C(=O)O; αAllylPro = C=CC[C@@]1(C(=O)O)CCCN1; tBuAla = CC(C)(C)C[C@H](N)C(=O)O; 3Thi = N[C@@H](Cc1ccsc1)C(=O)O; Cha = N[C@@H](CC1CCCCC1)C(=O)O; ξβ3hD = NC(CC(=O)O)CC(=O)O; Aib = CC(C)(N)C(=O)O

T1: B-cat-Halo (NanoBRET construct expressed in HEK293 cells) (UniProt P35222 1-781, HaloTag NanoBRET 618 Ligand bound in the assay)
T1 sequence (looked up): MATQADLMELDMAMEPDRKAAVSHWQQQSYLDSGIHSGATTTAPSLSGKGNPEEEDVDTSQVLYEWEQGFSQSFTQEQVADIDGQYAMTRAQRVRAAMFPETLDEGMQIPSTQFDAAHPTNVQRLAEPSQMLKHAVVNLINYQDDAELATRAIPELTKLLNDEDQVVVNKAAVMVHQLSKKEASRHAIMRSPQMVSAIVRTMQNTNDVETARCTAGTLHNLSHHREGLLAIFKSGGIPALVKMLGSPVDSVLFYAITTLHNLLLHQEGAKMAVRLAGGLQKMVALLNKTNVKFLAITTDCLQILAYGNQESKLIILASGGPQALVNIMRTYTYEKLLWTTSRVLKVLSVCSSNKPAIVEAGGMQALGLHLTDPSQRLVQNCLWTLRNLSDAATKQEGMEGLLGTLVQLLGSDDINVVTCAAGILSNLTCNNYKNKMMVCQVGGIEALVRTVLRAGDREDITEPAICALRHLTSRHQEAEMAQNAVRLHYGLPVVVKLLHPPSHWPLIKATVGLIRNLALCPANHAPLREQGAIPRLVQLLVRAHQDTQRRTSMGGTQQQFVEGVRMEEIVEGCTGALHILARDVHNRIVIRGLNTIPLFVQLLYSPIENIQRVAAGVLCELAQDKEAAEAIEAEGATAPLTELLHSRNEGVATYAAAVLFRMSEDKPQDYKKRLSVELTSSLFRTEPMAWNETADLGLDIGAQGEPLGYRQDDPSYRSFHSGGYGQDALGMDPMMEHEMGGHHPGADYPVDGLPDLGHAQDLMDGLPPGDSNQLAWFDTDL

T2: B-cat-Halo (UniProt P35222 1-781)
T2 sequence (looked up): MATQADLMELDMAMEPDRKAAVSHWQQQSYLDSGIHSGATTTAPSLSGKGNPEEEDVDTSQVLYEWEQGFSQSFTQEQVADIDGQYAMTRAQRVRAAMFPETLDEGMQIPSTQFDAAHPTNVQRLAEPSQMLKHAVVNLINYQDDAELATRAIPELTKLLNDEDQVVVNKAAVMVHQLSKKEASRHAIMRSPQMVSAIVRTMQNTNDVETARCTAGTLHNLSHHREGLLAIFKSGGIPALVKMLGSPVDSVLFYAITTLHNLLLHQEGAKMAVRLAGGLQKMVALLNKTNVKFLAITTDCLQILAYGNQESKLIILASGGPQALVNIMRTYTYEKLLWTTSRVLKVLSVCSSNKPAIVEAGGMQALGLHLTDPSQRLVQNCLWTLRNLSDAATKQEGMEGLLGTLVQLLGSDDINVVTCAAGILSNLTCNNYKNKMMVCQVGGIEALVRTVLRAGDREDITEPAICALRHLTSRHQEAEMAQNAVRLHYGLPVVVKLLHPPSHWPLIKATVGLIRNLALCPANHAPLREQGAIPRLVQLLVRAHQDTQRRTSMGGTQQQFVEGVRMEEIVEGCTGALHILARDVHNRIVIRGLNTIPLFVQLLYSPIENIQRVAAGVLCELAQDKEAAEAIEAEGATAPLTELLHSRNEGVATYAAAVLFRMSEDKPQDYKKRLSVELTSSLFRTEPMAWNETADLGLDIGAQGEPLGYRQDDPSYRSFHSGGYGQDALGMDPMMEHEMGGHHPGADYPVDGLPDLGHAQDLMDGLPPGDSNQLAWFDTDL


target: T1, B-cat-Halo (NanoBRET construct …); test: cell-based or functional assay

Going from Ac-[αAllylPro]D[tBuAla][B5(7)]D[TfeGA]AAFN[PyrS2][3Thi][Bta]H-NH2 (staple 1-4, 4-11) [I-769] to Ac-[αAllylPro]D[tBuAla][B5(7)]DDAAFN[PyrS3][3Thi][Bta]Q-NH2 (staple 1-4, 4-11) [I-767], the “NanoBRET Abs IC50” value rises from 13 µM to 37.2 µM (2.9-fold).

Ac-[αAllylPro]D[tBuAla][B5(7)]DDAAFQ[PyrS2][3Thi][Bta]Q-NH2 (staple 1-4, 4-11) [I-764] and Ac-[αAllylPro]D[tBuAla][B5(7)]DDAAFQ[PyrS2][3Thi][Bta]H-NH2 (staple 1-4, 4-11) [I-772] cannot be ordered by “NanoBRET Abs IC50” value: 30.9 µM for the first, > 20 µM for the second.

target: T2, B-cat-Halo; test: cell-based or functional assay

Ac-[αAllylPro]D[Cha][B5(4)]DTAAFT[PyrS2″][3Thi][Bta]Q-NH2 (staple 1-4, 4-11) [I-1173] and Ac-[αAllylPro]D[tBuAla][B5(4)]DTAAFT[PyrS2″][3Thi][Bta]S-NH2 (staple 1-4, 4-11) [I-1170] are within 1.5-fold of each other in “NanoBRET Abs IC50” value: 17.2 µM for the first, 13.5 µM for the second.

Ac-[αAllylPro]D[tBuAla][B5(4)]DTAAFL[PyrS2″][3Thi][Bta]S-NH2 (staple 1-4, 4-11) [I-1171] and Ac-[αAllylPro]D[Cha][B5(4)]DTAAFT[PyrS2″][Phe(2-Cl)][Bta]Q-NH2 (staple 1-4, 4-11) [I-1175] are within 1.5-fold of each other in “NanoBRET Abs IC50” value: 28.8 µM for the first, 27.3 µM for the second.

Going from Ac-[αAllylPro]D[tBuAla][B5(4)]DTAAFL[PyrS2″][3Thi][Bta]Q-NH2 (staple 1-4, 4-11) [I-1167] to Ac-[αAllylPro]D[tBuAla][B5(4)]DD[Aib]AFL[PyrS2″][3Thi][Bta]Q-NH2 (staple 1-4, 4-11) [I-1177], the “NanoBRET Abs IC50” value falls from 11.7 µM to 4.3 µM (2.7-fold).

Compared with Ac-[αAllylPro]D[Cha][B5(4)]DTAAFL[PyrS2″][3Thi][Bta]Q-NH2 (staple 1-4, 4-11) [I-1174], Ac-[αAllylPro]D[tBuAla][B5(4)]DTAAFL[PyrS2″][Phe(2-Cl)][Bta]S-NH2 (staple 1-4, 4-11) [I-1172] is 1.7-fold lower in “NanoBRET Abs IC50” value: 32.6 µM for the first, 19.4 µM for the second.

Ac-[αAllylPro]D[tBuAla][B5(4)]DDA[Aib]FL[PyrS2″][3Thi][Bta]Q-NH2 (staple 1-4, 4-11) [I-1178] and Ac-[αAllylPro][ξβ3hD][tBuAla][B5(4)]D[TfeGA]AAFN[PyrS2″][3Thi][Bta]Q-NH2 (staple 1-4, 4-11) [I-1161] cannot be ordered by “NanoBRET Abs IC50” value: 28.8 µM for the first, > 20 µM for the second.

Compared with Ac-[αAllylPro]D[tBuAla][B5(4)]DTAAFT[PyrS2″][Phe(2-Cl)][Bta]Q-NH2 (staple 1-4, 4-11) [I-1168], Ac-[αAllylPro]D[tBuAla][B5(4)]DTAAFT[PyrS2″][3Thi][Bta]Q-NH2 (staple 1-4, 4-11) [I-1166] is 2.2-fold lower in “NanoBRET Abs IC50” value: 31.4 µM for the first, 14.6 µM for the second.
